Assay results from US6610289B2, “Mutated herpes simplex virus type 1 thymidine kinases and uses thereof” (The Board of Trustees of the University of Arkansas, priority 1998, dated 2003).
Changes are numbered by the printed parent chain.

What was measured:
[1] = target: T1, HSV-1 TK (Human herpesvirus 1, UniProt P0DTH5, Q125N); conditions: previous study (17); cited from earlier work
T1 construct: glutathione-S-transferase (GST)
T1 sequence (P0DTH5 1-376 Q125N): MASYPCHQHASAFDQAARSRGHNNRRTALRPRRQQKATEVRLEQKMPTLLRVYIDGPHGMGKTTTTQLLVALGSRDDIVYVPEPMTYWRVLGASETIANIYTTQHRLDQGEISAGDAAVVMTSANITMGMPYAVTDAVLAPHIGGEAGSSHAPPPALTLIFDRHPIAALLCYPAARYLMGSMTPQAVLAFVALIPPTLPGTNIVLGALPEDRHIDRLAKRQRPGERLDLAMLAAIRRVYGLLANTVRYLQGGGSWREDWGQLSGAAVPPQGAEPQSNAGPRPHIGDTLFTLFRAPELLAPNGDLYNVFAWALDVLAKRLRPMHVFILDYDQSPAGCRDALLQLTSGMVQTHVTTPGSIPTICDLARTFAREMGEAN

[2] = target: T2, HSV-1 TK (Human herpesvirus 1, UniProt P0DTH5); conditions: reference (29); cited from earlier work
T2 sequence (P0DTH5 1-376): T1 sequence (P0DTH5 1-376 Q125N) with N125Q

[3] = system: Caspase 3; test: Caspase 3 colorimetric assay; type: cell-based, human; conditions: 25 μM GCV, FIG. 8
Description: Parental HCT-116, wild-type HSV-1TK, Asn-125TK and Glu-125TK-expressing HCT-116 cells were treated with 0 (black bars) or 25 μM GCV (gray bars) for 4 days. Cell lysates were prepared and caspase 3 assays performed using a colorimetric ApoAlert CPP32/Caspase-3 kit as per manufacturers instructions (Clontech). Relative caspase 3 activity was determined by O.D. 405 nm readings of the cleaved DEVD-pNA substrate and presented as DVEDase activity.
Caspase 3-like activity was determined in parental HCT-116 and each HSV-1 TK expressing cell line treated for 50 hrs plus or minus 25 μM GCV using an Apo-Alert CPP32/Caspase 3 Colorimetric Assay kit with the peptide substrate, DEVD-pNA, as per manufacturers instructions (Clontech Laboratories, INC.). GCV-treated and untreated cells were grown in 25 cm^2 flasks, and cell numbers were determined using a hemocytometer prior to analysis. Assays were done in triplicate with protein extracts derived from 2×10^6 cells. The amount of Caspase 3-like activities were quantitated using a Shimadzu UV/VIS spectophotometer set at 405 nm.
Caspase 3 activity was determined in different cell extracts derived from GCV-treated and control cells using a calorimetric assay with the peptide substrate DVED (SEQ ID No. 4).

[4] = system: HCT-116 cells; test: Clonal dilution assay for bystander effect cell killing; type: cell-based, human; conditions: 25 μM GCV 24 hours
Description: Each of the three HSV-1 TK expressing cell lines were plated with parental HCT-116 cells (total 2×10^5/well) in the following proportions: (parental: HSV-1TK cells) 100%:0; 95%:5%; 90%:10%; 75%:25%; 50%:50% and 0:100%. […] After 7 days, surviving cell colonies were fixed in 100% methanol, stained with 0.1% methylene blue and counted.
For determination of GCV sensitivity, parental HCT-116 and each HSV-1 TK expressing cells were seeded in 24 well plates (2×10^5/well) in 1 ml of media. The next day, 0, 0.1, 1 or 10 μM GCV was added to each cell line in triplicate. After 24 hours, for each well the media was removed, cells were rinsed twice in fresh media, trypsinized, then media was added to 1 ml per well. Each well of cells was then sequentially diluted from 1:10 to 1:10,000 in 1 ml of fresh media on a separate 24 well plate. After 7 days, surviving cell colonies were fixed in 100% methanol, stained with 0.1% methylene blue and counted. […]
It has been previously established that HCT-116 cells expressing HSV-1 TK are sensitive to bystander effect cell death via a connexin-43 gap junction mediated transfer of GCV metabolites (24). […] In these same cell lines, a greater than 4-log reduction in cell colony numbers was detected with 25% and 50% proportions of HSV-1 TK-expressing cells. […]

[5] = target: T3, HSV-1 TK (Human herpesvirus 1, UniProt P0DTH5, Q125E); conditions: previous study (17); cited from earlier work
T3 construct: glutathione-S-transferase (GST)
T3 sequence (P0DTH5 1-376 Q125E): T1 sequence (P0DTH5 1-376 Q125N) with N125E

Asn-125
Increase in the Km of ACV [1]: 3 fold | Increase in the Km of thymidine [1]: 50 fold

Gln-125 (WT): wild-type herpes simplex virus type 1 thymidine kinase with glutamine at position 125, parent enzyme [reference compound]
Km for thymidine lower than that of GCV [2]: 70-100 times

Glu-125
DVED-ase activity of GCV-treated cells relative to GCV-treated wild-type or Asn-125 HSV-1TK-expressing cells [3]: three times lower | Bystander effect: decrease in cell colony numbers ([4]; 10% proportions): 1 log | Bystander effect: decrease in cell colony numbers ([4]; 50% proportions): ~3 log | Thymidine and ACV phosphorylation activities [5]: no detectable activities
